Data on three substances can be found in doi:10.1101/2021.04.08.436756.

The target in test [1] is T1, myc-GIPR-Rluc (UniProt P48546).
T1 sequence: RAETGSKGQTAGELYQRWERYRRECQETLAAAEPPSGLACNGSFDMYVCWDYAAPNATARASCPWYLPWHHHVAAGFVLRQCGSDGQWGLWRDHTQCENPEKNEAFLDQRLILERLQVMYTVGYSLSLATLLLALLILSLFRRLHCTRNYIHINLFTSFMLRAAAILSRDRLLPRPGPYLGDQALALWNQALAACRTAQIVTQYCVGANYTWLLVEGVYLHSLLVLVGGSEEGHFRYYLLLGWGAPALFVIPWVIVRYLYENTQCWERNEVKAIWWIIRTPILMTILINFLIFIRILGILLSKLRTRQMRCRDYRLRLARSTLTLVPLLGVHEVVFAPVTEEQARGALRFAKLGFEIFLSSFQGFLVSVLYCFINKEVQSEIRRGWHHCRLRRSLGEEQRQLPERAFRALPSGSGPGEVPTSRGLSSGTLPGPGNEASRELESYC

The target of test [2] is T1, myc-GIPR-Rluc. This is another data set of the same source.

Where two headings read alike, the source gives them in different places.

In the case of “GIP (1-42) (from UniProt P09681 52-93) (peptide)”, in test [1], the ERK1/2 phosphorylation, biphasic model, high potency component; pEC50 1 is 9.13 -logEC50; the ERK1/2 phosphorylation, biphasic model, low potency component; pEC50 2 is 6.22 -logEC50; the [Ca^2+]i mobilisation, HEK-293S cells with untagged GIPR; pEC50 was 8.7 -logEC50; the cAMP accumulation, 8 min stimulation, HEK-293S cells with untagged GIPR; pEC50 was 9.83 -logEC50.

“GIP (D-Ala2) (from UniProt P09681 52-93) (peptide)”: in test [2], the ERK1/2 phosphorylation, biphasic model, high potency component; pEC50 1 is 8.72 -logEC50 and the ERK1/2 phosphorylation, biphasic model, low potency component; pEC50 2 is 6.88 -logEC50.

Consider GIP (Pro3) (peptide), for which, in test [2], the ERK1/2 phosphorylation, biphasic model, high potency component; pEC50 1 is 7.49 -logEC50 and the ERK1/2 phosphorylation, biphasic model, low potency component; pEC50 2 was 4.5 -logEC50.
